Ends that are not written are not given here.
Biological target: T1, LiRAD51^ATPase (Leishmania infantum RAD51 ATPase domain, residues 134–386) (Leishmania infantum)
T1 construct: RAD51 of Leishmania infantum, ATPase domain, residues 134-386; Vector pHAT2 (Addgene #112583); No removal of the His-tag is described; also called monomeric LiRAD51^ATPase; LiRAD51 ATPase domain; source: E. coli (T7Express or BL21(DE3)); purified (Ni-NTA, Superdex 75 SEC) for FP and ITC; in lysate for the pull-down
Test: fluorescence polarisation; competition: 5 nM Fluor-NCys-LiBRC1 probe with 500 nM LiRAD51^ATPase, GB1-LiBRC repeats in serial dilutions; KD estimated from the fitted IC50; 50 mM Tris pH 8.0, 150 mM NaCl, 100 mM Li2SO4, 1% BSA, 0.1% Tween-20
Settings: both partners purified

LVPTLFSTASGKPVTVRRESLQKVAERLGDLAAPDME (domain or fragment, not fully specified (N-terminus); also: GB1 fusion) [LiBRC1.2 (LiBRC1 with extended termini, GB1 fusion)]
Kd: 190 nM

AAAPPLVPTLFSTASGKPVTVRRESLQKVAERLGDLAA (domain or fragment, not fully specified (N-terminus); also: GB1 fusion) [LiBRC1.3 (LiBRC1 with extended termini, GB1 fusion)]
Kd: 310 nM

GB1-RVPTLFETGRGKAVTVQKRSLDKAEASMDSLEA-His8 (domain or fragment) [GB1-LiBRC2-His8 (BRC repeat 2 of Leishmania infantum BRCA2 fused to GB1)]
Kd: 13600 nM
